140 substances from the supplement of paper PMC12042874 can be followed below.

The nature of this data set: amyloid nucleation score (Sup35N fusion, yeast selection) (log enrichment); library NNK2; higher = more nucleation; inactive = no reads after selection. The essentials: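 The nucleation score is the log enrichment of output over input reads, calculated with DiMSum and centred on the mode score of non-aggregating sequences. Sequences with under 100 input reads were excluded. Reads came from Illumina sequencing of plasmid inserts from psi-negative yeast expressing Sup35N fused to peptides of 20 random codons, induced 24 hours with 100 μM copper sulfate and grown 7 days at 30°C without adenine and uracil.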

± gives the uncertainty stated by the source.

In turn, IVILDRFSPCSRTNE gave an amyloid nucleation score of 0.45 ± 0.8.

Consider MIGSGVW, for which the amyloid nucleation score is -1.07 ± 0.78. The substance RWKTVFRVYVEQKALPDLIC registered an amyloid nucleation score of 5.85 ± 0.087. EFLRRD: the amyloid nucleation score amounted to 0.055 ± 0.26. TCFTSCSG gave an amyloid nucleation score of 0.263 ± 0.37.

The substance GFPRMTIHVKFHGQFSCFII showed an amyloid nucleation score of 0.615 ± 0.5. Turning to KVALINYSLPMYFSVVTGLY, the amyloid nucleation score is 2.97 ± 0.071. With VHAPLLRRPNVLHTKLH, the amyloid nucleation score was determined as 0.112 ± 1.1.

Consider HCMYDWMNRSMGLVFDCLFL, for which the amyloid nucleation score is -1.04 ± 1. To DCARERYKLYNRLHWPSLSS belongs 0.474 ± 0.26.

In the case of EDEWMHLVRVQFQGKDRKAA, the amyloid nucleation score was found to be 0.92 ± 0.28. On to LSSGEYVSSGMRGTSCEKSK, for which the amyloid nucleation score was -0.007 ± 0.79. In turn, NLGSHTVEFSVMS had an amyloid nucleation score of 0.152 ± 0.77. CNSRNMVTGISM registered an amyloid nucleation score of 0.034 ± 1.1.

WHSVKMVNMFVGSKVISRSF showed an amyloid nucleation score of 5.42 ± 0.07. Take IRLFVRLNGHRWKRNW: the amyloid nucleation score was -0.003 ± 0.33. Turning to TVGLIRLRLSILYFGPLDSV, the amyloid nucleation score was determined as 0.115 ± 0.56. Turning to SYTGS, the amyloid nucleation score is -0.019 ± 0.34.

Regarding GCCPAALFEFT, the amyloid nucleation score was -1.07 ± 0.78.

With HEMRDGNSRLMFYWGVSCNM, the amyloid nucleation score is 0.062 ± 0.45. Take SGPATLLPTLGYNGVIVFGN: the amyloid nucleation score was -0.444 ± 0.78. Substance TGFMVTFASST showed an amyloid nucleation score of 0.02 ± 0.22. On to VDTSYITCITRLSPYIKVVL, for which the amyloid nucleation score is -0.477 ± 0.79.

RLLDFCQFPVTS had an amyloid nucleation score of 3.7 ± 0.063. To KGIDKPIEGPSSKHLRFNCY belongs 0.071 ± 0.65.

CISVVFVRHNGNFVSFNELV returned an amyloid nucleation score of 6.412 ± 0.05. On to CCCGRMTSVHVDKPDLYLPL, for which the amyloid nucleation score was -0.047 ± 1.1. For STTWNSLELTTDNAAGAAII, the amyloid nucleation score came out at 2.95 ± 0.09. On to WLCDWLASIWCMFGLSGCSR, for which the amyloid nucleation score is 0.232 ± 0.35. Turning to FNIMIWA, the amyloid nucleation score entry is “inactive”.

The substance RKEIRGLTMTRPIVDPMRTK yielded an amyloid nucleation score of 0.932 ± 0.81. Substance MVRIGELSPRCNSFV came in with an amyloid nucleation score of 0.075 ± 0.53. For ILYGDVWLRFKRFWLSWMPA, the amyloid nucleation score was -0.055 ± 0.55. The substance VLSRVDQSTGVIGQTGMVAC had an amyloid nucleation score of 0.6 ± 0.17. With AERLRVISGWAAWYAIDTRF, the amyloid nucleation score was 3.82 ± 0.11. As for VWRIRTAMGTG, the amyloid nucleation score was determined as 0.766 ± 0.19. For QIFRLDFDARDSWAKMLESL, the amyloid nucleation score was 0.536 ± 0.12.

In turn, FIMVQRLSCLVVQISRAGAC came in with an amyloid nucleation score of 3.79 ± 0.12. Turning to LKKFVPPELRSADVDRKCSK, the amyloid nucleation score result is “inactive”. Next, HTYVRVYLRGELCHPNCMNA: 6.348 ± 0.032; VGCIYSFWEWVFKQPVRSRK: “inactive”; IPVDT: -0.668 ± 1.1. For PLHRWLQDR, the amyloid nucleation score was -0.037 ± 0.79. For GWVLTSCGANGWRK, the amyloid nucleation score is -0.371 ± 0.63. In turn, GGLVVECRVGW returned an amyloid nucleation score of 3.42 ± 0.13. In turn, DYMNGDKSKKGDYWIMSVNS displayed an amyloid nucleation score of 0.154 ± 0.65. As for LIYIICVSLFSRVVMVIANF, the amyloid nucleation score was -1.25 ± 0.78. The substance YIHVVNTVSAVGVRRGSVGT came in with an amyloid nucleation score of 0.031 ± 0.76.

LKMIWIYSFCLILVLYLRQA yielded an amyloid nucleation score of 0.148 ± 1.

Consider CNYMPVPRPSMVMSFVSVTV, for which the amyloid nucleation score result was “inactive”. For the substance EKWLGLFKTYAESFDSCCLG, the amyloid nucleation score is -0.581 ± 0.29.

As to DSSMFYVIGLL, the amyloid nucleation score is -0.626 ± 0.79.

In turn, WTTIEFRIKGNFM came in with an amyloid nucleation score of 1.59 ± 0.19. Turning to GRSGRNNVKAW, the amyloid nucleation score entry is “inactive”. In turn, FCTNSYSFMDGTSCWAELRA gave an amyloid nucleation score of 0.594 ± 0.47. As to ILFCLF, the amyloid nucleation score was determined as 8.143 ± 0.033. For the substance CNVAHRLRVRSVAK, the amyloid nucleation score turned out to be 0.789 ± 0.47. On to WTYRCPALLFYQFYAKGYA, for which the amyloid nucleation score was -0.594 ± 0.63. In the case of EWPMPWMFHRCSG, the amyloid nucleation score is -0.138 ± 0.37.

SGARPVYFWLLIPLSYKL showed an amyloid nucleation score of 0.285 ± 1.

On to VIAGDTQGMSRGWFLGVLPW, for which the amyloid nucleation score entry was “inactive”. Next, IVWLLLSGRF: 4.54 ± 0.098; VNGPEDPPVHKLMKSTRRSC: 2.79 ± 0.088. Regarding MSARECWTIRFPYRVIVWEV, the amyloid nucleation score was determined as 0.214 ± 0.74.

With PTRKSIYSLPRARSLIPQNT, the amyloid nucleation score is -1.26 ± 1.1.

With VKEVRLPGTRILGRLAGSFR, the amyloid nucleation score result was “inactive”. As for KYTGNFGAVSL, the amyloid nucleation score is 0.22 ± 0.65. SLNISCYWHLKFVMRAWHTW: the amyloid nucleation score is -0.465 ± 1. For the substance KRFIESNIVIQSDLTSLRRK, the amyloid nucleation score is -0.184 ± 1.1. On to SNSQMKAAMVGCNLRGMEQA, for which the amyloid nucleation score amounted to 0.689 ± 0.57.

In the case of WSRSLKDGALESYSSVRLLC, the amyloid nucleation score turned out to be 0.1 ± 0.28. Take KSIAGNC: the amyloid nucleation score was -1.48 ± 0.78. Consider SNCSLMGYCMYAYNGSDTGC, for which the amyloid nucleation score amounted to 4.58 ± 0.11. To LPKGNYSLLAERRSYFGAPI belongs “inactive”. On to RFMFGNVKMLCVWAKRMLDI, for which the amyloid nucleation score stood at 3.16 ± 0.12.

Substance VMMNSCNCRSYTLYLL displayed an amyloid nucleation score of 9.183 ± 0.075.

With GGILH, the amyloid nucleation score was -0.254 ± 1. Consider VMNMRLLRANLPWTLAWRVQ, for which the amyloid nucleation score came to 0.122 ± 0.35. Take QNRLLDFFSEPTSRS: the amyloid nucleation score was -1.16 ± 1.1. To IAGYGVHTLVQCVV belongs 0.082 ± 1. SYSQGD showed an amyloid nucleation score of 0.674 ± 0.53. Substance VYSHILDYFACISYAITLVD gave an amyloid nucleation score of 2.91 ± 0.13. For the substance TVFRFNIYDYFFVM, the amyloid nucleation score turned out to be 4.27 ± 0.057. To PYYKAGGYMVMVHLSRLFLL belongs -0.882 ± 0.47; to RYFYLLWLIVTWIYSRVVIH, “inactive”; to LVFLIETRNFFRLHLSGCWA, -1.27 ± 0.75. With WVYFHSNNSDLLDNEIKLTR, the amyloid nucleation score was determined as 0.652 ± 0.66. Turning to TLFLSMLLMASSCYMTCCGD, the amyloid nucleation score was -0.119 ± 0.55.

The substance GMFLWLFLVPRYHPTSTELG showed an amyloid nucleation score of 0.219 ± 1. ATHKVWFESGYAHTPLVYLF: the amyloid nucleation score was -0.588 ± 0.78. Take MMGVCF: the amyloid nucleation score is -0.916 ± 1.1. SCSANCRISLDSSRVVVPYY showed an amyloid nucleation score of 0.571 ± 0.64. On to GLQRKGCP, for which the amyloid nucleation score was -0.356 ± 1.1. Turning to VLSVGAGKYGLSLISSTTTI, the amyloid nucleation score is 1.28 ± 0.66.

Turning to DTALFYSNNVMTSKVGAQKS, the amyloid nucleation score is -0.003 ± 1.1. Next, RDDVRRVRPLGSVVQDDSDG: 0.882 ± 0.18; YSNRLYFVLEAVVYL: 1.41 ± 0.32. The substance GVDKWLDHVCFVASYLSVKV showed an amyloid nucleation score of 1.22 ± 0.51. As to SIYKIILNSILPPHYNFLTY, the amyloid nucleation score is -1.21 ± 1.

For RFHGTGSQHS, the amyloid nucleation score is -0.496 ± 0.39. As for SFMDQHFS, the amyloid nucleation score was -0.419 ± 0.63. Regarding FRGLVILNRNGVCDILEYGC, the amyloid nucleation score was -0.58 ± 0.27. For FDPIRWLLNYIFMASTLYVE, the amyloid nucleation score is -0.804 ± 0.44.

Turning to INSSRSFVYDFNTWNFQDVR, the amyloid nucleation score is -0.089 ± 0.79. VCAQLYPVYMWFWICMGMVQ registered an amyloid nucleation score of 2.27 ± 0.14. ISVVNSGCCCITTHPLRTYR gave an amyloid nucleation score of 9.867 ± 0.079. As to LGTEAEWCVGLMCSVKRYQM, the amyloid nucleation score was 4.58 ± 0.068. NHMGIVRVVLMFGSYITLI: the amyloid nucleation score is -0.174 ± 0.45.

With TIVYWSTTRTTAPGDDRESV, the amyloid nucleation score worked out at 5.31 ± 0.062. To QTLAYTSDKTS belongs 0.549 ± 0.45. To CVKDQSSRRRWLIYWAHSLS belongs -0.145 ± 0.76; to LDNACSQGGGDFRLSLS, -0.773 ± 0.55.

Turning to VWWSLSYFQAVRGQLFHQIV, the amyloid nucleation score was -0.139 ± 0.42. Take CIFILTD: the amyloid nucleation score was -1.67 ± 0.45. With CWCSLRRFTMLCNMRMNWDN, the amyloid nucleation score is 1.91 ± 0.086. With QSFNGS, the amyloid nucleation score was -1.2 ± 0.54. Next, CSFSADCVSRSGGRSFSP: -0.834 ± 0.63. In turn, YFFTLKV displayed an amyloid nucleation score of 0.497 ± 0.46. As for SLQFPISVNTYGDESCNSTV, the amyloid nucleation score is -0.424 ± 1.1.

With ITDVFSMWIF, the amyloid nucleation score was -0.73 ± 0.5.

SFYRHGFTGNGTSVRGPDRS showed an amyloid nucleation score of 0.097 ± 0.79. Consider SYECPMHTLPVHSRSAYRST, for which the amyloid nucleation score was determined as 0.878 ± 0.27. To NMDSGLVMVVLVCDDYMTTT belongs 0.119 ± 0.61; to DAAEISGLCLYDFLTGDLEQ, 2.27 ± 0.12. Next, SKTYRPCARLSFEHGRCNLV: 3.68 ± 0.11.

Take CMFEFHGVAVGLMRVFHRLW: the amyloid nucleation score turned out to be 5.23 ± 0.062. VCGMLTVIHWFLVIVVIDLV came in with an amyloid nucleation score of 0.863 ± 0.58. Take FMLFRRGKNQRFRRLTDYKN: the amyloid nucleation score was -2.44 ± 1.1. To AILFSIFISVGRKWLFSASH belongs -1.78 ± 1.1. Next, GGVAETGERFWHSRLHG: 0.679 ± 0.81. On to IIISYMFKHSWIKKGRHKLV, for which the amyloid nucleation score came out at 0.597 ± 0.5. To RFLKNRMLNCKVIGIWWKCY belongs “inactive”.

SNLEHSGWRTRMRWGL yielded an amyloid nucleation score of 5.5 ± 0.079. To LLAVFTSCYCQECYVEPALV belongs 5.55 ± 0.07; to NRWMRGDTVWNVGWWSPNWG, 0.173 ± 0.46; to DSIYVL, -0.831 ± 0.44. With SEQWSQIYGAFSV, the amyloid nucleation score was -1.32 ± 0.63. Regarding KAIFSCDARFVRWNAHNREC, the amyloid nucleation score result is “inactive”. For VAGIVYLGARW, the amyloid nucleation score amounted to 5.43 ± 0.086.

In the case of QGFYDGQPV, the amyloid nucleation score is 0.203 ± 0.5.
